Results reported in patent US12383631B2, “Immune antigen specific IL-18 immunocytokines and uses thereof” (Bright Peak Therapeutics AG, priority 2022, dated 2025).
pEC50, pKd: −log10 of the molar value.

What was measured:
human PD-1/CD279 = human PD-1/CD279 (Homo sapiens, UniProt Q15116); test: PD-1 binding ELISA (Example 5); conditions: coated antibody or immunocytokine, biotinylated human PD-1/CD279-Fc
Procedure: The interaction of the unmodified antibodies and corresponding IL-18 immunocytokines with relevant immune cell associated antigen are measured by ELISA assay. For these studies, Corning high-binding half-area plates (Fisher Scientific, Reinach, Switzerland) are coated overnight at 4° C. with 25 μl of unmodified antibodies corresponding IL-18 immunocytokines at 5 μg/ml in PBS. Plates are then washed four times with 100 μl of PBS-0.02% Tween20. Plate surfaces are blocked with 25 μl of PBS-0.02% Tween20-1% BSA at 37° C. during 1 h. Plates are then washed four times with 100 μl of PBS-0.02% Tween20. […] Plates are then washed four times with 100 μl of PBS-0.02% Tween20. Twenty-five microliters of Streptavidin-Horseradish peroxidase (#RABHRP3, Merck, Buchs, Switzerland) diluted at 1:500 into PBS-0.02% Tween20-0.1% BSA are added to each well and incubated at Room Temperature during 30 min. Plates are then washed four times with 100 μl of PBS-0.02% Tween20. Fifty microliters of TMB substrate reagent (#CL07, Merck, Buchs, Switzerland) are added to each well and incubated at 37° C. during 5 min. After 5 min at 37° C., Horseradish peroxidase reaction is stopped by adding 50 μl/well of 0.5M H2SO4 stop solution. ELISA signal is then measured at 450 nm on an ENSPTRE® plate reader from Perkin Elmer (Schwerzenbach, Switzerland).

PD-1/PD-L1 interaction = PD-1/PD-L1 interaction (Homo sapiens, UniProt Q15116+Q9NZQ7); test: PD-1/PD-L1 Blockade Bioassay, Jurkat NFAT-RE luciferase / PD-L1 aAPC CHO-K1 (Example 7); format: cell-based; conditions: table titled activity in the PD-1/PD-L1 Blockade Cellular Assay; NFAT-RE luminescence, 6 h; read-out: KD FcRn
Procedure: For immunocytokine compositions which comprise PD-1 or PD-L1 antibodies or antigen binding fragments, the experiment outlined below is performed to assess the ability of the immunocytokines to interfere with the PD-1/PD-L1 pathway. The assay is the PD-1/PD-L1 Blockade Bioassay from Promega (Cat #J1250, Madison, WI, USA). PD-1/PD-L1 Blockade Bioassay is a bioluminescent cell-based assay based on the co-culture of effector cells with target cells mimicking an immunological synapse. Jurkat T cells expressing human PD-1 and a luciferase reporter driven by a NFAT response element (NFAT-RE) are activated by CHO-K1 cells expressing human PD-L1 and an engineered cell surface protein designed to activate Jurkat cells cognate TCRs. Concurrent interaction PD-1/PD-L1 inhibits TCR signaling and represses NFAT-RE-mediated luminescence. […]
Briefly, PD-L1 aAPC/CHO-K1 Target cells were plated in white tissue culture 96-wells plates and cultured overnight at 37° C./5% CO2. Test molecules were measured in four-fold serial dilutions starting at 1 μM down to 0.002 nM and pre-incubated on target cells for 10 min before the addition of freshly thawed PD-1 Jurkat effector cells. After 6 h at 37° C./5% CO2, activity NFAT-RE luminescent reporter was evaluated by the addition of Bio-Glo reagent and measured on an ENSPTRE® plate reader (1 sec/well) from Perkin Elmer (Schwerzenbach, Switzerland).

[1] = target: human neonatal Fc receptor (FcRn) (Homo sapiens, UniProt P55899); test: Human FcRn binding AlphaLISA at pH 6 (Example 9); conditions: AlphaLISA competition
Procedure: The interaction of the unmodified and of conjugated anti-PD1 antibodies with the human neonatal Fc receptor (FcRn) at pH 6 was measured using the AlphaLISA® Human FcRn Binding Kit (AL3095C) from Perkin Elmer (Schwerzenbach, Switzerland). […] When reference IgG binds to FcRn, donor and acceptor beads come into proximity enabling the transfer of singlet oxygen that trigger a cascade of energy transfer reactions in the acceptor beads, resulting in a sharp peak of light emission at 615 nm. Addition of a free IgG antibodies into the AlphaLISA® mixture creates a competition for the binding of FcRn to the reference antibody resulting in a loss of signal.
After 90 min at 23° C. in the dark, AlphaLISA® signal was measured on an EnSpire plate reader (Excitation at 680 nm, Emission at 615 nm) from Perkin Elmer (Schwerzenbach, Switzerland).

[2] = tested on: PD-1 positive (transduced) KG-1 cells; test: IFN gamma secretion assay in PD-1 transduced KG-1 cells (Example 11); format: cell-based, human; conditions: IFNγ secretion, PD-1 transduced KG-1 cells, 20-24 h
Procedure: The KG-1 cell line was used to generate a PD-1 expressing cell line and furthermore, to measure IFNγ release upon incubation with TL-18 variants and corresponding TL-18 immunocytokines.
PD-1 expressing cell line generation: Briefly, KG-1 cells were transduced using lentiviral particles carrying the human PD-1 gene (PDCD1 NM_005018; Origene, CAT #: RC210364L3V) at a MOI (Multiplicity of Infection) of 30. Spinfection was performed at 1260 g during 90 min at 37° C. in the presence of 5 μg/ml of Polybrene and 10 mM of HEPES in complete culture media (RPMI, 10% FBS, 1% L-Glutamine). Five days after transduction, puromycin at a final concentration of 1 μg/ml was added to select for PD-1 positive cells. For culture maintenance, puromycin concentration was decreased to 0.5 μg/ml. Stable and homogenous expression of PD-1 was verified by surface staining (BD Pharmingen, #557860).
IFNγ release was assessed in PD-1 positive (transduced) KG-1 cells, as well as in the parental PD-1 negative cells. 0.5×10^5 cells were seeded into a 96-well U-bottom plate in culture media (RPMI, 10% FBS, […]) and stimulated with IL-18 variants/ICs for 20-24 h. The test items were diluted to 100 nM in culture medium, followed by 7 10-fold serial dilutions. The lowest concentration assessed was […]. After incubation, IFNγ release was measured using the LEGENDplex custom human mix and match KIT (Biolegend LEGENDplex™ Human IFN-γ Capture Bead B5, 13×#740942, LEGENDplex™ P 1 Essential Immune Response Panel Detection Abs, #740931, LEGENDplex™ Buffer Set A #740368). To this end, cell culture supernatant was collected and diluted 1:1 with Assay Buffer. Fluorescence measurements were done with a Quanteon Flow Cytometer from Acea Biosciences. For analysis, MFI values (median fluorescence intensity) were exported and plotted against concentrations used. The EC50 values (half maximal effective concentration) were calculated based on a variable slope and four parameter analysis using GraphPad PRISM software version 9.

Sequence of PD-1/PD-L1 interaction (Q15116 25-288): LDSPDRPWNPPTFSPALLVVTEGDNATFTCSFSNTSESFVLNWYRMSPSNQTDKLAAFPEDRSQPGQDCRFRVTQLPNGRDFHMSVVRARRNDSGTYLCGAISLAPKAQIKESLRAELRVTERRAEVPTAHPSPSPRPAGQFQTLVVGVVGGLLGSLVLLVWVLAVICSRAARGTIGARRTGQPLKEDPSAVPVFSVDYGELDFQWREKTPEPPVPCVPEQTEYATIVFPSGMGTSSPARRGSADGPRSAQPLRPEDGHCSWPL
Sequence of PD-1/PD-L1 interaction (Q9NZQ7 19-290): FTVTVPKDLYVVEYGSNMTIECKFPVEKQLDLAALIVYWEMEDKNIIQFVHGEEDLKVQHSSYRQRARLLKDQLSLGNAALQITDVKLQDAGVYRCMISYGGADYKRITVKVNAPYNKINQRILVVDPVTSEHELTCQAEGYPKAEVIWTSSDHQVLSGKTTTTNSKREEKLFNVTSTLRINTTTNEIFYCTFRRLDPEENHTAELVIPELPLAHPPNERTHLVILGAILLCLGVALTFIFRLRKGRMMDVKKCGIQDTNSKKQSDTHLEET
Sequence of human PD-1/CD279 (Q15116 25-288): as the sequence (Q15116 25-288) above

Row | pKd (human PD-1/CD279) | PD-1/PD-L1 blockade potency (PD-1/PD-L1 interaction) [nM] | pKd [1] | pEC50 [2] | Substance
1 | < 7.00 | 0.664 | 8.19 |  | Atezolizumab/Tecentriq: anti-PD-L1 antibody, unconjugated reference antibody [reference compound]
2 | < 7.00 |  |  | 11.44 | Composition B: immunocytokine: Atezolizumab/Tecentriq (anti-PD-L1) conjugated to IL-18 polypeptide SEQ ID NO: 30
3 |  | 5.8 | 8.22 |  | LZM-009: anti-PD-1 antibody (VH SEQ ID NO: 376, VL SEQ ID NO: 377), unconjugated reference antibody [reference compound]
